We go through 34 molecules from US20210324028A1 (Pfizer, published 2021).

Positions count from the first letter of the chain named. Names may count otherwise.

The labels stand for the following.
B1: hIL-15 V49R/H32M (ligand)
chain: NWVNVISDLKKIEDLIQSMHIDATLYTESDVMPSCKVTAMKCFLLELQRISLESGDASIHDTVENLIILANNSLSSNGNVTESGCKECEELEEKNIKEFLQSFVHIVQMFINTGGGGSGHHHHHHHHGGGLNDIFEAQKIEWHE
B2: hIL-15 V49R/K10A (ligand)
chain: B1 chain with K10A, M32H
B3: hIL-15 V49R/K10N (ligand)
chain: B1 chain with K10N, M32H
B4: hIL-15 V49R/H32N (ligand)
chain: B1 chain with M32N
B5: hIL-15 V49R/H32S (ligand)
chain: B1 chain with M32S
B6: hIL-15 V49R/I68L (ligand)
chain: B1 chain with M32H, I68L
B7: hIL-15 V49R/K10E (ligand)
chain: B1 chain with K10E, M32H
B8: hIL-15 V49R/K10M (ligand)
chain: B1 chain with K10M, M32H
B9: hIL-15 V49R/H32R (ligand)
chain: B1 chain with M32R
B10: hIL-15 V49R/I68Y (ligand)
chain: B1 chain with M32H, I68Y
B11: hIL-15 V49R/H32Q (ligand)
chain: B1 chain with M32Q
B12: hIL-15 V49R/I68H (ligand)
chain: B1 chain with M32H, I68H
B13: hIL-15 V49R/I68F (ligand)
chain: B1 chain with M32H, I68F
B14: hIL-15 V49R/K10G (ligand)
chain: B1 chain with K10G, M32H
B15: hIL-15 V49R/K10D (ligand)
chain: B1 chain with K10D, M32H
B16: hIL-15 V49R/I111S (ligand)
chain: B1 chain with M32H, I111S
B17: hIL-15 V49R/K10L (ligand)
chain: B1 chain with K10L, M32H
B18: hIL-15 V49R/H32P (ligand)
chain: B1 chain with M32P
B19: hIL-15 V49R/K11A (ligand)
chain: B1 chain with K11A, M32H
B20: hIL-15 V49R/I68N (ligand)
chain: B1 chain with M32H, I68N
B21: hIL-15 V49R/I111K (ligand)
chain: B1 chain with M32H, I111K
B22: hIL-15 V49R/K10S (ligand)
chain: B1 chain with K10S, M32H
B23: hIL-15 V49R/I68R (ligand)
chain: B1 chain with M32H, I68R
B24: hIL-15 V49R/K10W (ligand)
chain: B1 chain with K10W, M32H
B25: hIL-15 V49R/I68M (ligand)
chain: B1 chain with M32H, I68M
B26: hIL-15 V49R/I111A (ligand)
chain: B1 chain with M32H, I111A
B27: hIL-15 V49R/K10R (ligand)
chain: B1 chain with K10R, M32H
B28: hIL-15 V49R/I111D (ligand)
chain: B1 chain with M32H, I111D
B29: hIL-15 V49R/K10H (ligand)
chain: B1 chain with K10H, M32H
B30: hIL-15 V49R/I68V (ligand)
chain: B1 chain with M32H, I68V
B31: hIL-15 V49R/I68T (ligand)
chain: B1 chain with M32H, I68T
B32: hIL-15 V49R/I68A (ligand)
chain: B1 chain with M32H, I68A
B33: hIL-15 V49R/H32V (ligand)
chain: B1 chain with M32V
B34: hIL-15 V49R/K10Q (ligand)
chain: B1 chain with K10Q, M32H

T1 sequence (Q13261 31-205 limits assumed): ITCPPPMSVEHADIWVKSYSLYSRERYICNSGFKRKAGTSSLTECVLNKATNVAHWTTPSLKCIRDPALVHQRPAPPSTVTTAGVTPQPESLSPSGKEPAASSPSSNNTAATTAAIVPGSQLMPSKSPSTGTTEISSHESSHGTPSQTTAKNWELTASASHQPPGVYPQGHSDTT

The first experiment has as its target T1, human IL-15Rα (human, UniProt Q13261 31-205, limits assumed).
T1 construct: also called hIL-15Rα; IL-15 receptor alpha
In words: SPR, steady state. (SPR reads the build-up and loss of mass on a sensor chip optically.)
A word on the Kd: it is the concentration at which binding is half-saturated. Read a low Kd as tighter binding. B1: binding was characterised by a dissociation constant (Kd) of 134 nM.

Consider B2, for which the Kd was found to be 150 nM.

As for B3, the affinity, expressed as Kd, was 128 nM.

On to B4, for which the equilibrium dissociation constant (Kd) came to 85.9 nM.

For the molecule B5, binding was put at a Kd of 110 nM.

Turning to B6, the Kd stood at 73.6 nM.

B7 registered a Kd of 126 nM. This Kd is about 1.7-fold higher than that of the molecule before.

B8 came in with a Kd of 122 nM.

As for B9, the Kd is around 131 nM.

B10 returned a dissociation constant (Kd) of 92.9 nM.

Turning to B11, the dissociation constant Kd turned out to be 64 nM.

With B12, the Kd stood at 87.6 nM.

On to B13, for which the Kd was determined as 78.5 nM.

Molecule B14 had a Kd of 209 nM. Compared with the last molecule, the Kd is about 2.7-fold higher.

Molecule B15 registered a Kd of 270 nM.

B16 had a dissociation constant (Kd) of 223 nM. The Kd values of the last two molecules are within 1.5-fold of each other.

Turning to B17, the affinity, expressed as Kd, was 124 nM.

In turn, B18 came in with a Kd of 162 nM. This Kd and that of the molecule before are within 1.5-fold of each other.

On to B19, for which the Kd was found to be 191 nM. This Kd and that of the molecule before are within 1.5-fold of each other.

Regarding B20, the Kd is 85 nM.

In the case of B21, the Kd came out at 199 nM.

B22 yielded a Kd of 195 nM. The Kd values of the last two molecules are within 1.5-fold of each other.

B23 returned a Kd of 102 nM.

As for B24, the Kd stood at 101 nM.

For the molecule B25, the affinity, expressed as Kd, was 96.2 nM.

Take B26: the Kd worked out at 173 nM.

As for B27, the affinity, expressed as Kd, was 94.5 nM. Against the preceding molecule, the Kd is about 1.8-fold lower.

Turning to B28, the Kd is 214 nM.

In the case of B29, the Kd amounted to 85.6 nM.

In turn, B30 returned an equilibrium dissociation constant (Kd) of 104 nM. This Kd and that of the molecule before are within 1.5-fold of each other.

The molecule B31 came in with a Kd of 76.3 nM.

Consider B32, for which the Kd was 113 nM.

Take B33: binding was characterised by a dissociation constant (Kd) of 99.8 nM.

In turn, B34 yielded a Kd of 100 nM.

The next experiment addresses T2, human IL-2Rβ (human, UniProt P14784 27-240, limits assumed).
T2 construct: also called hIL-2Rβ; IL-2 receptor beta
T2 sequence (looked up): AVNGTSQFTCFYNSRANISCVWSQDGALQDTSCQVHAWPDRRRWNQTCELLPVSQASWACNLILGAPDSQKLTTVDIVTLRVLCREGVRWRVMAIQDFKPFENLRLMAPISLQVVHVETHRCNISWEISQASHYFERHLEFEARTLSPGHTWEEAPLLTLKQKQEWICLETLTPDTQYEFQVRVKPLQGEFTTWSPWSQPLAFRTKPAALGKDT
In words: SPR, steady state.
Molecule B1 returned a Kd of 161 nM.

Consider B2, for which the dissociation constant Kd was found to be 321 nM.

For B3, the Kd is 230 nM.

Molecule B4 came in with a Kd of 124 nM.

Consider B5, for which binding was characterised by a dissociation constant (Kd) of 176 nM. This Kd and that of the molecule before are within 1.5-fold of each other.

In turn, B6 registered a Kd of 245 nM.

Turning to B7, the dissociation constant Kd came out at 360 nM. The Kd values of the last two molecules are within 1.5-fold of each other.

For B8, the affinity, expressed as Kd, was 391 nM.

B9 displayed a Kd of 156 nM.

Molecule B10 had a Kd above 1000 nM.

In turn, B11 showed a dissociation constant (Kd) of 147 nM.

Molecule B12 registered a Kd above 1000 nM.

As to B13, the Kd was above 1000 nM.

Molecule B14 yielded a Kd above 500 nM.

In turn, B15 had a Kd above 500 nM.

As to B16, the Kd is above 500 nM.

As for B17, binding was characterised by a dissociation constant (Kd) of 348 nM.

Regarding B18, the Kd came to 146 nM.

B19 registered a Kd of 206 nM. The Kd values of the last two molecules are within 1.5-fold of each other.

As for B20, the Kd is above 1000 nM.

In turn, B21 displayed an equilibrium dissociation constant (Kd) of 397 nM.

B22 came in with a Kd of 496 nM.

Regarding B23, the Kd was above 500 nM.

Regarding B24, the dissociation constant Kd was 185 nM.

Molecule B25 displayed a Kd above 1000 nM.

As for B26, the Kd was found to be 375 nM. That is a sub-micromolar value.

B27 registered a Kd of 146 nM.

In turn, B28 registered a Kd above 500 nM.

Take B29: binding was characterised by a dissociation constant (Kd) of 114 nM. That is a sub-micromolar value.

The molecule B30 registered a Kd of 296 nM.

In turn, B31 had a Kd above 500 nM.

The molecule B32 showed a Kd above 500 nM.

For the molecule B33, the affinity, expressed as Kd, was 247 nM.

The molecule B34 showed a dissociation constant (Kd) of 250 nM.
